# Source: patent US20220220166, “PPR PROTEIN CAUSING LESS AGGREGATION AND USE OF THE SAME” (EditForce, Inc., published 2022)
# Changes are numbered by the printed parent chain.
# T1: PPRcag_3 (6N9Q), Nluc-PPR-His6 (synthetic construct)
# T1 chain: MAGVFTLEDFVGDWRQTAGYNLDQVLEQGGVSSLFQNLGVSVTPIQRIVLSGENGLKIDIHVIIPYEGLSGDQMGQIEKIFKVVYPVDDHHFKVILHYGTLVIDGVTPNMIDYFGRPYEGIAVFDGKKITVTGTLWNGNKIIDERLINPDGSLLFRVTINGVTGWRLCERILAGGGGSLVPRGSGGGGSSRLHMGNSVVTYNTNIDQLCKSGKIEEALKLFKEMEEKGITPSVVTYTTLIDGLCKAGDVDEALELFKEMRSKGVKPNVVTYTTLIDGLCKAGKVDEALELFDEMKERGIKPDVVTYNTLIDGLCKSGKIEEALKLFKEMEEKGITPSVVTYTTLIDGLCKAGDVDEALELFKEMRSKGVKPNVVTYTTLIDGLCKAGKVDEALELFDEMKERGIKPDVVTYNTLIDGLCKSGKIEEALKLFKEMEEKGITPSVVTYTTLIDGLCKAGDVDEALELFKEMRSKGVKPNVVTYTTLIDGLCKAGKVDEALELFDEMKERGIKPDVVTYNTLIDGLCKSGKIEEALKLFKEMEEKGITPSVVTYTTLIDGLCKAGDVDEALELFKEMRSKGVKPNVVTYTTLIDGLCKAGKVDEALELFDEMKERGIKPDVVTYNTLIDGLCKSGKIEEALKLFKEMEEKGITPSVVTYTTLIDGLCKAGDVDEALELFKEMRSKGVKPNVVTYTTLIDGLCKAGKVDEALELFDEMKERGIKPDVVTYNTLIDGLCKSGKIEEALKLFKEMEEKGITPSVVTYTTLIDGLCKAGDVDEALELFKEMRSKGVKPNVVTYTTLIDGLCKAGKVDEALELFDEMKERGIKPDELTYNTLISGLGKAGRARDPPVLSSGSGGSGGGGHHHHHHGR
# T2: PPRcag_4 (6N9E), Nluc-PPR-His6 (synthetic construct)
# T2 chain: T1 chain with Q207E
# T3: PPRcag_6 (6D9G), Nluc-PPR-His6 (synthetic construct)
# T3 chain: T1 chain with N204D, Q207G
# T4: PPRcag_5 (6N9K), Nluc-PPR-His6 (synthetic construct)
# T4 chain: T1 chain with Q207K
# B1: CAGx6 RNA probe (ssRNA)
# RNA: GACAUGCCAGCAGCAGCAGCAGCAGGACUG
# Experiments:
# Assay in all cases: vs PPRcag_1; streptavidin plate luciferase assay, RT
# Conditions in all cases: tags: N-terminal luciferase (Nluc), C-terminal 6xHis; label: 5'-biotin
# [1] = molecular target: T1, PPRcag_3 (6N9Q), Nluc-PPR-His6
# Experimental: (§1) The binding experiment for PPR protein and RNA was performed by an experimental method for binding of PPR protein and biotinylated RNA on a streptavidin plate.
# (§2) There were synthesized RNA probes of 30-base RNAs containing the target CAGx6 sequence, untargeted CGGx6, CUGx6, and CCGx6, and the Dlb ([…]) sequence (positions 8 to 25 of SEQ ID NO: 42) modified with biotin at the 5′-end (in that order, SEQ ID NOS: 38 to 42, respectively) (Grainer). To a streptavidin-coated plate (Thermo Fisher, Cat. No. 15502), the 5′-end biotinylated RNA probes were added, reaction was allowed at room temperature for 30 minutes, and the plate was washed with a probe washing buffer (20 mM Tris-HCl, pH 7.6, 150 mM NaCl, 5 mM MgCl₂, 0.5% NP-40, 1 mM DTT, 0.1% BSA). For background measurement, wells to which biotinylated RNA was not added, but the lysis buffer was added were also prepared. Then, a blocking buffer (20 mM Tris-HCl, pH 7.6, 150 mM NaCl, 5 mM MgCl₂, 0.5% NP-40, 1 mM […], 1% BSA) was added, and the plate surface was blocked at room temperature for 30 minutes. Then, 100 μL of the E. coli lysate containing luciferase-fused PPR protein having a luminescence of 1.5×10⁸ LU/μL was added, and the binding reaction was allowed at room temperature for 30 minutes. Then, the plate was washed 5 times with 200 μL of a washing buffer (20 mM Tris-HCl, pH 7.6, 150 mM NaCl, 5 mM MgCl₂, 0.5% NP-40, 1 mM DTT). To each well, 40 μL of luciferase substrate (Promega, E151A) diluted 2,500-fold with the washing buffer was added, reaction was allowed for 5 minutes, and then luminescence was measured with a plate reader (PerkinElmer, Cat. No. 5103-35).
# [2] = molecular target: T2, PPRcag_4 (6N9E), Nluc-PPR-His6
# Experimental: as §1, §2
# [3] = molecular target: T3, PPRcag_6 (6D9G), Nluc-PPR-His6
# Experimental: as §1, §2
# [4] = molecular target: T4, PPRcag_5 (6N9K), Nluc-PPR-His6
# Experimental: as §1, §2
binder,measurement,setting,value
B1,binding signal,[1],~80%
same,binding signal,[2],~60%
same,binding signal,[3],~130%
same,binding signal,[4],~120%
